Measured values as given in US20040131585A1.

Target: human CXCR4 on intravenously injected human CD34+ angioblasts (human) (UniProt P61073)
Experiment: cell-based or functional assay

Sequence of UniProt P61073 (P61073 whole entry): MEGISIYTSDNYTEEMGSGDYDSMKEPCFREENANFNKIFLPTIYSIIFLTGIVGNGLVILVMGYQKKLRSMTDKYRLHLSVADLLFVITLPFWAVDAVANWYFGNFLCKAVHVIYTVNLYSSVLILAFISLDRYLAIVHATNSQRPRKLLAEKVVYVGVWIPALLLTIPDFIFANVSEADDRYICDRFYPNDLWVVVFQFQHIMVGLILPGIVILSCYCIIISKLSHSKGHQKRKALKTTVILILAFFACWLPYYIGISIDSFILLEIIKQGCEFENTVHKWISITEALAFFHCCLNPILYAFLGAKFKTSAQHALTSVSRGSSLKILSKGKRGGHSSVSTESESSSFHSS

increase in trafficking of CD34+ human angioblasts to ischemic rat myocardium, with co-administered mAb against human CXCR4: 24%
increase in trafficking of CD34+ human angioblasts to ischemic rat myocardium, with co-administered mAb against rat SDF-1: 17%
Substance: rat SDF-1 (stromal-derived factor-1) (ligand)
